Molecular target: cellular receptor used by the virus to infect target cells (ARPE 19 epithelial cells)
Assay: cell-based or functional assay

## soluble HCMV pentameric complex (gH, gL, pUL128, pUL130, pUL131), purified, tag-free, produced in CHO-K1SV cells (from UniProt P12824 26-713; Q68672 32-278; P16837 23-171; F5HCP3 28-213; F5HET4 19-129)
  IC50, inhibition of HCMV infection of ARPE 19 epithelial cells (complex pre-incubated with the target cells): 1.9 nM

— patent US20170119874A1
